The target of experiment [1] is HLA-A*02:01. Briefly: IEDB peptide-MHC binding, purified MHC/competitive/fluorescence; filed as Kd, often an IC50 or EC50 that approximates it; ≥ and ≤ were set here for values at or beyond the usual limits of such assays. Conditions: source organism: Entamoeba histolytica HM-1:IMSS.
Experiment [2] addresses HLA-A*02:03. The experiment is described as above. Conditions: source organism: Entamoeba histolytica HM-1:IMSS.
In experiment [3] the target is HLA-A*02:11. Described as above. The conditions noted are these: source organism: Entamoeba histolytica HM-1:IMSS.
In experiment [4] the target is HLA-A*02:12. Described as above. Conditions: source organism: Entamoeba histolytica HM-1:IMSS.
Experiment [5] has as its target HLA-A*02:16. The experiment is described as above. Conditions: source organism: Entamoeba histolytica HM-1:IMSS.
Experiment [6] deals with HLA-A*02:19. The description is as above. Conditions: source organism: Entamoeba histolytica HM-1:IMSS.
The target of experiment [7] is HLA-A*03:01. The experiment is described as above. Conditions: source organism: Entamoeba histolytica HM-1:IMSS.
The next experiment concerns the target HLA-A*23:01. Described as above. Conditions: source organism: Entamoeba histolytica HM-1:IMSS.
The target of another experiment is HLA-A*24:03. The experiment is described as above. Conditions: source organism: Entamoeba histolytica HM-1:IMSS.
The next experiment has as its target HLA-A*25:01. Described as above. The conditions noted are these: source organism: Entamoeba histolytica HM-1:IMSS.
For another experiment, the target named is HLA-A*26:01. Described as above. Conditions: source organism: Entamoeba histolytica HM-1:IMSS.
The next experiment concerns the target HLA-A*29:02. The description is as above. The conditions noted are these: source organism: Entamoeba histolytica HM-1:IMSS.
In a further experiment the target is HLA-A*68:02. The experiment is described as above. Conditions: source organism: Entamoeba histolytica HM-1:IMSS.
Experiment [8] has as its target HLA-A*69:01. The experiment is described as above. Conditions: source organism: Entamoeba histolytica HM-1:IMSS.
A further experiment concerns the target HLA-A*80:01. The description is as above. The conditions noted are these: source organism: Entamoeba histolytica HM-1:IMSS.
Experiment [9] addresses HLA-B*15:01. The experiment is described as above. The conditions noted are these: source organism: Entamoeba histolytica HM-1:IMSS.
The target of another experiment is HLA-B*15:17. The description is as above. The conditions noted are these: source organism: Entamoeba histolytica HM-1:IMSS.
The target in the next experiment is HLA-B*18:01. Described as above. The conditions noted are these: source organism: Entamoeba histolytica HM-1:IMSS.
A further experiment addresses HLA-B*27:03. The description is as above. Conditions: source organism: Entamoeba histolytica HM-1:IMSS.
For another experiment, the target named is HLA-B*39:01. Described as above. The conditions noted are these: source organism: Entamoeba histolytica HM-1:IMSS.
Another experiment deals with HLA-B*46:01. The experiment is described as above. Conditions: source organism: Entamoeba histolytica HM-1:IMSS.
A further experiment deals with HLA-B*51:01. The experiment is described as above. The conditions noted are these: source organism: Entamoeba histolytica HM-1:IMSS.
A further experiment deals with HLA-B*57:01. Described as above. The conditions noted are these: source organism: Entamoeba histolytica HM-1:IMSS.
In experiment [10] the target is HLA-A*31:01. In words: IEDB peptide-MHC binding, purified MHC/competitive/fluorescence; ≥ and ≤ were set here for values at or beyond the usual limits of such assays. The conditions noted are these: source organism: Homo sapiens.
Another experiment addresses HLA-A*01:01. Briefly: IEDB peptide-MHC binding, purified MHC/direct/fluorescence; filed as Kd, often an IC50 or EC50 that approximates it; ≥ and ≤ were set here for values at or beyond the usual limits of such assays. The conditions noted are these: source organism: Yersinia pestis.
Experiment [11] concerns the target HLA-A*02:01. The description is as above. Conditions: source organism: Yersinia pestis.
Experiment [12] addresses HLA-A*02:03. The experiment is described as above. Conditions: source organism: Yersinia pestis CA88-4125.
A further experiment has as its target HLA-A*02:06. The experiment is described as above. Conditions: source organism: Yersinia pestis CA88-4125.
The target of experiment [13] is HLA-A*02:11. The description is as above. Conditions: source organism: Yersinia pestis CA88-4125.
Experiment [14] addresses HLA-A*02:12. Described as above. Conditions: source organism: Yersinia pestis CA88-4125.
The target of experiment [15] is HLA-A*02:16. The description is as above. Conditions: source organism: Yersinia pestis CA88-4125.
In experiment [16] the target is HLA-A*02:19. The experiment is described as above. Conditions: source organism: Yersinia pestis CA88-4125.
Experiment [17] has as its target HLA-A*03:01. Described as above. The conditions noted are these: source organism: Yersinia pestis.
In a further experiment the target is HLA-A*11:01. The description is as above. Conditions: source organism: Yersinia pestis.
Experiment [18] addresses HLA-A*31:01. The experiment is described as above. Conditions: source organism: Yersinia pestis.
The target of experiment [19] is HLA-A*69:01. Described as above. Conditions: source organism: Yersinia pestis.
The next experiment addresses HLA-B*07:02. The description is as above. The conditions noted are these: source organism: Yersinia pestis.
A further experiment deals with HLA-B*08:01. Described as above. The conditions noted are these: source organism: Yersinia pestis CA88-4125.
For another experiment, the target named is HLA-B*08:02. The description is as above. The conditions noted are these: source organism: Yersinia pestis CA88-4125.
Experiment [20] deals with HLA-B*15:01. The description is as above. The conditions noted are these: source organism: Yersinia pestis.
A further experiment has as its target HLA-B*27:05. The experiment is described as above. The conditions noted are these: source organism: Yersinia pestis.
The next experiment addresses HLA-B*40:01. The description is as above. Conditions: source organism: Yersinia pestis.
The target in another experiment is HLA-B*44:02. The description is as above. The conditions noted are these: source organism: Yersinia pestis.
In a further experiment the target is HLA-B*58:01. Described as above. The conditions noted are these: source organism: Yersinia pestis.
For a further experiment, the target named is HLA-A*02:50. Briefly: IEDB peptide-MHC binding, purified MHC/competitive/fluorescence; filed as Kd, often an IC50 or EC50 that approximates it; ≥ and ≤ were set here for values at or beyond the usual limits of such assays. Conditions: source organism: Yersinia pestis Nepal516.

By Kd is commonly meant the constant that tells how readily two partners part at equilibrium. A high value points to lower affinity. As for LICYQIEYI, the Kd is no less than 20 µM in the experiment with HLA-A*02:01 [1]; no less than 20 µM with HLA-A*02:03 [2]; 0.0008 µM in the experiment with HLA-A*02:11 [3]; no less than 20 µM with HLA-A*02:12 [4]; no less than 20 µM with HLA-A*02:16 [5]; no less than 20 µM in the experiment with HLA-A*02:19 [6]. Besides, the Kd with HLA-A*03:01 [7], with HLA-A*23:01, with HLA-A*24:03, with HLA-A*25:01, with HLA-A*26:01 and with HLA-A*29:02 was no less than 20 µM each time. Moreover, the Kd in the experiment with HLA-A*68:02, with HLA-A*69:01 [8], with HLA-A*80:01, in the experiment with HLA-B*15:01 [9], with HLA-B*15:17 and with HLA-B*18:01 was no less than 20 µM each time. The Kd with HLA-B*27:03, with HLA-B*39:01, with HLA-B*46:01, with HLA-B*51:01 and in the experiment with HLA-B*57:01 was no less than 20 µM each time.
By IC50 is commonly meant the concentration that gives 50% inhibition. A low value points to greater potency in that assay. TMGTGTFGR came in with an IC50 with HLA-A*31:01 [10] of 0.388 µM.
Regarding FLPPQIPVI, the Kd in the experiment with HLA-A*01:01 is no less than 20 µM; in the experiment with HLA-A*02:01 [11], 0.0214 µM; in the experiment with HLA-A*02:03 [12], no more than 0.001 µM; with HLA-A*02:06, no more than 0.001 µM; in the experiment with HLA-A*02:11 [13], no more than 0.001 µM; in the experiment with HLA-A*02:12 [14] it was no more than 0.001 µM. Further, the dissociation constant Kd was no more than 0.001 µM with HLA-A*02:16 [15]; 0.018 µM in the experiment with HLA-A*02:19 [16]; no less than 20 µM with HLA-A*03:01 [17]; no less than 20 µM with HLA-A*11:01; no less than 20 µM with HLA-A*31:01 [18]; 4.7 µM with HLA-A*69:01 [19]. Also, the Kd is no less than 20 µM in the experiment with HLA-B*07:02; no less than 20 µM in the experiment with HLA-B*08:01; no less than 20 µM with HLA-B*08:02; 0.477 µM with HLA-B*15:01 [20]; no less than 20 µM in the experiment with HLA-B*27:05; no less than 20 µM with HLA-B*40:01. In addition, the Kd was no less than 20 µM in the experiment with HLA-B*44:02, no less than 20 µM in the experiment with HLA-B*58:01 and no more than 0.0001 µM with HLA-A*02:50.

(Values after the Immune Epitope Database (IEDB).)
